Laboratory results taken from article PMC8313811 (Current Research in Structural Biology, 2021).

What was measured:
SEC = molecular target: the molecule itself; test: SEC
cryo-EM structure = molecular target: the molecule itself; test: cryo-EM structure

B1: M. tuberculosis EspB (residues 2-358), mature form (domain or fragment)
chain: TQSQTVTVDQQEILNRANEVEAPMADPPTDVPITPCELTAAKNAAQQLVLSADNMREYLAAGAKERQRLATSLRNAAKAYGEVDEEAATALDNDGEGTVQAESAGAVGGDSSAELTDTPRVATAGEPNFMDLKEAARKLETGDQGASLAHFADGWNTFNLTLQGDVKRFRGFDNWEGDAATACEASLDQQRQWILHMAKLSAAMAKQAQYVAQLHVWARREHPTYEDIVGLERLYAENPSARDQILPVYAEYQQRSEKVLTEYNNKAALEPVNPPKPPPAIKIDPPPPPQEQGLIPGFLMPPSDGSGVTPGTGMPAAPMVPPTGSPGGGLPADTAAQLTSAGREAAALSGDVAVKAA
binding result (SEC): binds

B2: M. marinum EspB2-286 (domain or fragment)
chain: SQPQTVTVDQQEILNRADEVEAPMATPPTDVPQAPSGLTAANNAAEQLAVSADNVRLYLQAGERERQRLATSLRNAAAAYGEVEDESATALDNDGNGEVDAQSAGGAGAGQTESLEETPKVAAAGESDFTDLKTAATKLESGDQGTSMVNFADGWNNFNLSLQRDIKRFRIFENWEGDAATACEASMDQQKEWILHMAKLSASLAKQANFMAQLQLWARRGHPTLADIVELERLAKDPDYQEQAIKLYAEYQETSEKVLSEYNTKADLEPVNPPKPPAAIKIDPP
stoichiometry N (cryo-EM structure): 7

B3: M. tuberculosis EspB2-287 (domain or fragment)
chain: TQSQTVTVDQQEILNRANEVEAPMADPPTDVPITPCELTAAKNAAQQLVLSADNMREYLAAGAKERQRLATSLRNAAKAYGEVDEEAATALDNDGEGTVQAESAGAVGGDSSAELTDTPRVATAGEPNFMDLKEAARKLETGDQGASLAHFADGWNTFNLTLQGDVKRFRGFDNWEGDAATACEASLDQQRQWILHMAKLSAAMAKQAQYVAQLHVWARREHPTYEDIVGLERLYAENPSARDQILPVYAEYQQRSEKVLTEYNNKAALEPVNPPKPPPAIKIDPP
stoichiometry N (cryo-EM structure): 7
